Experimental data taken from the nanobody polyreactivity screen of Harvey et al. (2022).

Experiment: yeast display, Sf9 membrane polyspecificity reagent, FACS + sequencing; frameworks hold sequencing errors
Procedure, shortened: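 Synthetic nanobody libraries on Saccharomyces cerevisiae BJ5465 were galactose-induced for 36–48 hours, stained 1 hour at 4 °C with 10% biotinylated, detergent-solubilized Sf9 membrane reagent and enriched on streptavidin microbeads. FACS then separated cells into low and high (top ~1%) gates by anti-HA (expression) and streptavidin (reagent binding) fluorescence. Genes were colony-PCR amplified, MiSeq 2 × 250 sequenced and CDR-length filtered. A clone's polyreactivity label is that of its gate of origin.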

Row | Sequence | polyreactivity (PSR sort gate)
1 | QVQLVESGGGLVQAGGSLRLSCAASGRICDFYSMGWYRQAPGKERELVAAIDSDGSTNYADSVKGRFTISRDNAKNNVYLQMNSLKPEDTAVSYCNADIWAYTYRRYDYWGQGTQVTVSS | low polyreactivity
2 | QVQLVESGGGLVQAGGSLRLSCAASGRICGSYAMGWYRQAPGKERELVADISWRGTSTYYADSVKGRFTISRDIAKNTVYLQMNSLKPEDTAVYYCAARGLWPYDYWGQGTQVTVSS | low polyreactivity
3 | QVQLVESGGGLVQAGGSLRLSCAASGRICKRNAMGWYRQAPGKERELVAAITWSGGSTYYADSVKGRFTISRDNAKNTVYLQMNSLKPEDTAVYYCAALRVQGDYDYWGQGTQVTVSS | high polyreactivity
4 | QVQLVESGGGLVQAGGSLRLSCAASGRICPGYVMGRYRQAPGKERELVAAITSTGRTYYADSVKGRFTISRDNEKKTVYLQMNSLKPEDTAVYYCAAVRSYYRGYDYWGQGTQVTVSS | high polyreactivity
5 | QVQLVESGGGLVQAGGSLRLSCAASGRIDVSNAMGWYRQAPGKERELVAAITRTGASTYYADSVKGRCTISRDNAKNNVYVQMNSLKPEDSAVYYSDDVWGWPYWVYRYDYWGQGTQVTVSS | high polyreactivity
6 | QVQLVESGGGLVQAGGSLRLSCAASGRIFADNAMGWYRQAPGKERELVADITYSGGSTYYADSVKGRFTISRDNAKNTVYLQMNSLNPEDTAVYYCAKQGVDYWGQGTQVTVSS | low polyreactivity
7 | QVQLVESGGGLVQAGGSLRLSCAASGRIFADYGMGWYRQAPGKERELVAAITDRGGTTYYADSVKGRFTISRDNAKNTVYLQMNSLKPEDTAVYYCAADTPDAPDYSGFYYWGQGTQVTVSS | low polyreactivity
8 | QVQLVESGGGLVQAGGSLRLSCAASGRIFAENAMGWYRQAPGKERELVAAISRTGSRTYYADSVKGRFTISRDNAKNTVYLQMNSLKPEDSAVYYCNKVSAQDEFRSRGYWGQGTQVTVSS | high polyreactivity
9 | QVQLVESGGGLVQAGGSLRLSCAASGRIFAGYAMGWYRQAPGKEREFVATITSRAGNTYYADSVKGRFTISRDNAKNTVYLQMNSLKPEDTGVYYCAARSRGWAGYYYWYKDYSWGQGTQVTVSS | high polyreactivity
10 | QVQLVESGGGLVQAGGSLRLSCAASGRIFAHNAMGWYRQAPGKERELGASINSGGSTTYADSVKGRFTISRDNAKNTVYLQMNSLKPEDTAVYDCAKRDKYGKYDYWGQGTQVTVSS | low polyreactivity
11 | QVQLVESGGGLVQAGGSLRLSCAASGRIFAHYAMGWYRQAPGKERELVAAIRRSGVSTYYADSVKGRFTSSRDNAKNTVYLQMNSLKPEDTAVYYCNARAYVSPYDYWGQGTQVTVSS | low polyreactivity
12 | QVQLVESGGGLVQAGGSLRLSCAASGRIFAIYAAIGWYRQAPGKERELVAAISSGDNTNYADSEKGRFTISRDNAKNTVYLQMNSLIPEDTAVYYCATDLVYYAAVTKFAEYDYWGQGTQVTVSS | low polyreactivity
13 | QVQLVESGGGLVQAGGSLRLSCAASGRIFAPYAMGWYRQAPGKERELVAAITSGGSTNYADSVKGRFTISRDNAKNTVYVQMNSLKPEDTAVYYCAAEASYNYGKYVVTYDYWGQGTQVTVSS | high polyreactivity
14 | QVQLVESGGGLVQAGGSLRLSCAASGRIFAPYDMGWYRQAPGKERELVASITSGGSTNYTDSVKGRFTISRDNAKNTVYLQMNSLKPEDTAVYYCNTAKISEPTDPLQRVWGGTYDYWGQGTQVTVSS | low polyreactivity
15 | QVQLVESGGGLVQAGGSLRLSCAASGRIFARNALGWYRQAPGKEGELVARIRASGGSTYYADSVKGRFTISRDNEKNTVYLQMNSLKPEDTAVYYCNARTSSPYRVDYWGQGTQVTVSS | high polyreactivity
16 | QVQLVESGGGLVQAGGSLRLSCAASGRIFARNAMGWYREAPGKERELVATIRVGGGSTYYADSVKGRFTISRHNAKNTVYLQMNSLKPEDTAVYYCAVRQLYSYPGDRRGYYWGQGTQVNVSS | low polyreactivity
17 | QVQLVESGGGLVQAGGSLRLSCAASGRIFARNAMGWYRQAPGKERELVAGITWSGSSTYYADSVKGRFTISRDNAKNTVYLQMNSLKPEDTAVYYCAVDYYVGSLRIDHDYWGQGTQVTVSS | low polyreactivity
18 | QVQLVESGGGLVQAGGSLRLSCAASGRIFARNAMGWYRQAPGKERELVATIRVGGGSTYYADSVKGRFTISRDNAKNTVYLQMNSLKPEDTAVYYCAVRQLYSYPGDRRGYYWGQGTQVTVSS | low polyreactivity
19 | QVQLVESGGGLVQAGGSLRLSCAASGRIFARYAMGWNRQAPGKERELVAAISFRGGSTYYADSVKGRFTISRDNAKNTVYLQINSLKPEDTAVYYWNARYGRGGYDYWGQGTQVTVSS | high polyreactivity
20 | QVQLVESGGGLVQAGGSLRLSCAASGRIFARYAMGWYRPAPGKERELVAAITKSVGSTYYADSVKGRFTISRDNAKYTVYLQMNRLKPEDTAVYYCNAVARGYGYDYWGQGTQVTVSS | high polyreactivity
21 | QVQLVESGGGLVQAGGSLRLSCAASGRIFARYAMGWYRQAPGKETELVAAISRGGSTKYADSVKGRFTISRDNAKNTVYLQMNSLNPVDTAVYYCARQLWGSPYGAYYAGDYWGQGTQVTVSS | low polyreactivity
22 | QVQLVESGGGLVQAGGSLRLSCAASGRIFARYAMGWYRQAPGKQRELVAAITVSGDNTYYADSVKGRFTISRDNAKNTVYLQMNSLKPEDTAVYYCAVRAVLLFGFFDYDYWGQGTQLTVSS | low polyreactivity

Row | Sequence | polyreactivity (PSR sort gate)
23 | QVQLVESGGGLVQAGGSLRLSCAASGRIFARYTMGWYRQAPGKEREFVAGIRSSGGRTYYADSVKGRFTISRDNAKNTVYLQMNSLKPEDTAVYYCKAGGSWYFARYDYWGQGTLVTVSS | low polyreactivity
24 | QVQLVESGGGLVQAGGSLRLSCAASGRIFASYAMGWYRQAPGKERELVASISKSVGRTYYSDSVKGRFTISRDNAKNTVYLQMNSLKPEDTAVYDCAAISYFPLRTRYERWFYYWGQGTQVTVSS | high polyreactivity
25 | QVQLVESGGGLVQAGGSLRLSCAASGRIFATNGMGWYRQATGKERELVATSTRSAGRTYYADSVKGRFTISRDNAKNTVYLQMNSLKPEDTAVYYCAADGYSTAVDDTVRYIVEYEYWGQGTQVTVSS | low polyreactivity
26 | QVQLVESGGGLVQAGGSLRLSCAASGRIFATYAMGWSRQAPGKERELVAAISDGGGITYYADSVKGRFTISRDNAKNTVYLQMNSLKPDDTAVYYCARTYARYNFGYWGQGTQVTVSS | low polyreactivity
27 | QVQLVESGGGLVQAGGSLRLSCAASGRIFAVYAMGWYRQAPGKEREFVAAISYSGGITYYADSVKGRFTISRDTAKNTVYLQMNSLKPEDTAVYYCNAYYYFWGQGTQVTVSS | low polyreactivity
28 | QVQLVESGGGLVQAGGSLRLSCAASGRIFAVYAMGWYRQAPGKERELVAAINWNDGSTYYADSVKGRFTISRDNAKNTVYLQMNSLKPEDTAVYYCAARALSRSVYGKSGYKYGYWGQGTQVTVSS | high polyreactivity
29 | QVQLVESGGGLVQAGGSLRLSCAASGRIFAWYAMGWYRQAPGKEREFVAASTYRAARTYYADSVKGRFTISRDNAKNTVYLQMNSLNPEDTAVYYCNRQFGRRVYISHPGPGYWGQGTQVTVSS | high polyreactivity
30 | QVQLVESGGGLVQAGGSLRLSCAASGRIFAWYTMVWYRQAPGKERELVATISSSGGSTYYADSVKGLFTISRDNAKNTVYLQMNSLKPEDTAVYYCAAQYYPYSYAHRYGYCGQGTQVTVSS | high polyreactivity
31 | QVQLVESGGGLVQAGGSLRLSCAASGRIFAYNAMGWYRPAPGKERELVADISSGGNTYYADSVKGRFTISRDNAKNTVYLQMNSLKPEDTAVYYCAADIAWYTHYHRIFDYWGQGTQVTVSS | low polyreactivity
32 | QVQLVESGGGLVQAGGSLRLSCAASGRIFAYNAMGWYRQAPGKERELVAAIDWSGGRTYYADSVKGRFTISRDNEKNTVYLQMNSLKPEDTAVYYCATDVNSYGYYYWGQGTQVTVSS | high polyreactivity
33 | QVQLVESGGGLVQAGGSLRLSCAASGRIFAYNAMGWYRQAPGKEREVVAAIDSGGDTNYADSVKGRFTISRDNAKNTVYLQMNSLKPEDTAVYYCNVTYSGQATFAYTDSARYDYWGQGTQVTVSS | low polyreactivity
34 | QVQLVESGGGLVQAGGSLRLSCAASGRIFAYYAMGWNRQAPGKERELVAAISRSGVSTYYADSVKGRFTISRDNAKNTVYLQRNSLKPEDTAVYYCAARWRSGFTSGDYWGQGTLVTVSS | low polyreactivity
35 | QVQLVESGGGLVQAGGSLRLSCAASGRIFAYYAMGWYRQAPGKERELGATITGGGDRTYYADSVKGRFTISRDNAKNTVYLQMNSLKPEDTAVYYCNARVWYYSPYYYWGQRTQVTVSS | low polyreactivity
36 | QVQLVESGGGLVQAGGSLRLSCAASGRIFAYYAMGWYRQAPGKERELVAAINTSGATTNYADSVKGRFTISRDKAKNTVYLQMNSLKPEDTAVYYCAAWKGVYTYNYWGQGTQVTVSS | high polyreactivity
37 | QVQLVESGGGLVQAGGSLRLSCAASGRIFAYYAMGWYRQAPGKERELVAAISSGGTTNYADSVKGRFTISRDNAKNTVYLQMNSLKPEDTAVYYCNADGWRRSRQYYYWGQGTQVTVSS | low polyreactivity
38 | QVQLVESGGGLVQAGGSLRLSCAASGRIFAYYAMGWYRQAPGKERELVAAITSRGGRTYYADSVKGRFTISRDNAKNTVYLQMNSLKPEDTAVYYCAAKGRPDGKYDYWGQGTQVTVSS | high polyreactivity
39 | QVQLVESGGGLVQAGGSLRLSCAASGRIFAYYAMGWYRQAPGTERELVAAISRSGVSTYYADSVKGRFTISRDNAKNTVYLQMNSLKPEDTAVYYCAAERYWTYYSGFVYGGDNYWGQGTQVTVSS | low polyreactivity
40 | QVQLVESGGGLVQAGGSLRLSCAASGRIFAYYTMGWYRQAPGKERELVAAITKRGGSTYYADSVKGRFTISRDNAKNTVYLQMNSLKPEDTAVYYCAADPHRYRYRSPHDYWGQGTQVTVSS | high polyreactivity
41 | QVQLVESGGGLVQAGGSLRLSCAASGRIFAYYTMGWYRQAPGKERELVAAITSRGGSTYYADSVKGRFTISRDNAKKTVYLQMNSLKPEDTAVYYCAALRPSNVDYWGQGTQVTVSS | high polyreactivity
42 | QVQLVESGGGLVQAGGSLRLSCAASGRIFAYYVMGWYRQAPGKERELVASISSGGGTYYADSVKGRFTISRDNAKNTVYLQMNSLKPEDTAVYYCAARWRRYVYPDGHLFWYDYWGQGTQVTVSS | high polyreactivity
43 | QVQLVESGGGLVQAGGSLRLSCAASGRIFDANAMGWYRQAPGKERELVAAITVSGGSTYYADSVKGRFTISRDNAKNTVYLEMNSLKPEDTAVYYCAKSLVPWWYKVDYDYWGQGTQVTVSS | low polyreactivity
